Experimental findings from paper PMC9063470, “Ultrasensitive fluorescent aptasensor for CRP detection based on the RNase H assisted DNA recycling signal amplification strategy” are described below.

One series addresses BNP (UniProt P16860 103-134). The series can be described thus: fluorescent strand-displacement aptasensor (RNase H recycling, GO quenching); 50 ng/mL; negligible signal; 20 mM Tris-HCl, 40 mM KCl, 8 mM MgCl2, 1 mM DTT, pH 7.8; 20 min Ap/P1 + CRP incubation; temperature not stated. Conditions: label: none (5-FAM is on the reporter RNA S3, not on Ap or P1); partial duplex: P1 (23 nt) pairs with Ap nt 48-70; 47 nt 5' and 2 nt 3' single-stranded Ap overhangs.

Another series deals with T1, MB (UniProt P02144 2-154).
T1 sequence: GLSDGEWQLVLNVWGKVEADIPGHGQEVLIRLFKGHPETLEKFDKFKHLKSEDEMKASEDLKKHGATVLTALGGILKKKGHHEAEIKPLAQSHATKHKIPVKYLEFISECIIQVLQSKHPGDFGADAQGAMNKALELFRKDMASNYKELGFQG
The series is described as above. The settings on record: label: none (5-FAM is on the reporter RNA S3, not on Ap or P1); partial duplex: P1 (23 nt) pairs with Ap nt 48-70; 47 nt 5' and 2 nt 3' single-stranded Ap overhangs.

Another series deals with T2, C-reactive protein (CRP) (UniProt P02741 19-224).
T2 sequence: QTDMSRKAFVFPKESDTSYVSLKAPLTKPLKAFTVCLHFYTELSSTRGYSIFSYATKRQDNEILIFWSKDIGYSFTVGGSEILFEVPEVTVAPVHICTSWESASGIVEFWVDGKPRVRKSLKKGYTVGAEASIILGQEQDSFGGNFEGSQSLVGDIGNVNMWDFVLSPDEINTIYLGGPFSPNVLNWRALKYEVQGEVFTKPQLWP
The series can be described thus: fluorescent strand-displacement aptasensor (RNase H recycling, GO quenching); CRP 10 ng/mL; P1 strand released from Ap/P1; 20 mM Tris-HCl, 40 mM KCl, 8 mM MgCl2, 1 mM DTT, pH 7.8; 20 min Ap/P1 + CRP incubation; temperature not stated. Conditions: chain copies: 5; label: none (5-FAM is on the reporter RNA S3, not on Ap or P1); partial duplex: P1 (23 nt) pairs with Ap nt 48-70; 47 nt 5' and 2 nt 3' single-stranded Ap overhangs.

Chain of BNP (P16860 103-134): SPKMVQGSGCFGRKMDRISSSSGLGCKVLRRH

B1: CRP aptamer (Ap) presented as Ap/P1 complex (mixed)
DNA 1: GGCAGGAAGACAAACATATAATTGAGATCGTTTGATGACTTTGTAAGAGTGTGGAATGGTCTGTGGTGCTGT
DNA 2: AGCACCACAGACCATTCCACACT
Regarding B1, the results for the binding result with BNP, with MB and in the series with C-reactive protein (CRP) were “no binding”, “no binding” and “binds”, respectively.
